Laboratory results from patent publication US8021646B2, “Compositions and methods for magnetic resonance imaging contrast agents” (Northwestern University, priority 2006, dated 2011).
No end group written: not given here.

Assay: Solubility of protein polymers
Format: physicochemical
Description: In order to both increase solubility of the protein backbone in organic solvents and to include a better enzymatic transglutaminase substrate for conjugation to chelators, a phenylalanine amino acid (F) will be added to the random coil backbone, resulting in GFKAGTGSA (SEQ ID NO: 4). It is contemplated that this protein structure will not form a particular secondary structure, behaving as a random coil in an aqueous solution. As indicated by the monomer sequence, the lysines are spaced every nine amino acids, which is still an optimal interval for a high concentration of Gd chelators, but still allowing enough room to prevent steric hindrance. […] It is contemplated that proteins including various amounts of leucines, a hydrophobic residue that is high on the hydropathy scale, provides novel protein polymers useful in the present invention that are both water and organo-soluble.
However, a protein soluble in organic solvents would allow coupling in N-methyl-pyrrolidone (NMP) using a peptide coupling agent such as Bromo-tris-pyrrolidinophosphoniumhexafluorophosphate (PyBroP) or 2-(IH-7-Azabenzotriazol-1-yl)-1,1,3,3-tetramethyluroniumhexafluorophosphate Methanaminium (HATU) in diisopropylethylamine (DIEA). Two equivalents of the chelator and at least 2:1 equivalents of the peptide-coupling agent will be used for each lysine site. […]

## GFKAGTGSA: protein polymer with monomer GFKAGTGSA (SEQ ID NO: 4), phenylalanine added to the random coil backbone (also: repeated monomer polymer)
  solubility in water: only soluble in water at high pH
Organic solvents
  solubility in organics: not soluble in organics
